Experimental findings from US20060246071A1 are described below.

Assay [1] concerns the target Mouse/Human chimeric Ang-2 with human StuI-TfiI fragment (residues 310-400) (mouse with human residues 310-400) (UniProt O35608). Briefly: ELISA.
Assay [2] concerns the target human Ang-2 mutated at positions 365 and 367 (human) (UniProt O15123). Briefly: ELISA.
In assay [3] the target is Mouse/Human Ang-2 StuI chimera (mouse; human) (UniProt O35608). Briefly: ELISA.
The target in assay [4] is human Ang-2 H375Q (human) (UniProt O15123). Briefly: ELISA.
The target in assay [5] is human Ang-2 V345M (human) (UniProt O15123). Briefly: ELISA.
For assay [6], the target named is Human Ang-1/2 BsmI chimera (human). Briefly: ELISA.
For assay [7], the target named is human Ang-2443 (human) (UniProt O15123). Briefly: ELISA.
For assay [8], the target named is recombinant human Angiopoietin-2 (human) (UniProt O15123). Briefly: Biacore, mAb captured; kd held constant in fit.
For assay [9] the target is unchanged. Briefly: inhibition of rhAng-2 binding to its receptor.
The target is the same in assay [10]. Briefly: Biacore, mAb captured.
Assay [11] concerns the target mouse Angiopoietin-2 (mouse) (UniProt O35608). Briefly: ELISA.
Assay [12] has the same target. Briefly: ELISA titration, mouse Ang-2 supernatant coated.

human Ang-2 mutated at positions 365 and 367 (human), sequence (O15123 19-496, change not shown): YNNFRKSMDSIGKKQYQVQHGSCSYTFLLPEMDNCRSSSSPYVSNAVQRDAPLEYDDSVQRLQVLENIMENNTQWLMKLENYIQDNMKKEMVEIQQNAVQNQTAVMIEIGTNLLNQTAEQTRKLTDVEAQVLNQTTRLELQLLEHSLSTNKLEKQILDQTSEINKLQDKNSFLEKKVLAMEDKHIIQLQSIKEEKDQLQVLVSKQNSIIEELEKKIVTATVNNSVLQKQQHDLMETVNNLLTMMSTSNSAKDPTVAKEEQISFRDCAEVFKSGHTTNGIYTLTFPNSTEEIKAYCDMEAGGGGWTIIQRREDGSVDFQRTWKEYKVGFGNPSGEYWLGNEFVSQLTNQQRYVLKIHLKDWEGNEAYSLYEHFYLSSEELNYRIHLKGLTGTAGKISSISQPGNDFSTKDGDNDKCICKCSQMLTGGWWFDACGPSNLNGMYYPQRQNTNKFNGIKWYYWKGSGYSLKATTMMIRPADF
recombinant human Angiopoietin-2 (human), sequence (O15123 19-496 limits assumed): as the sequence (O15123 19-496, change not shown) above
human Ang-2 V345M (human), sequence (O15123 19-496, stated change not applied): as the sequence (O15123 19-496, change not shown) above
human Ang-2 H375Q (human), sequence (O15123 19-496, stated change not applied): as the sequence (O15123 19-496, change not shown) above
Mouse/Human Ang-2 StuI chimera (mouse; human), sequence (O35608 other isoform, or with tags, fused parts or gaps mutant): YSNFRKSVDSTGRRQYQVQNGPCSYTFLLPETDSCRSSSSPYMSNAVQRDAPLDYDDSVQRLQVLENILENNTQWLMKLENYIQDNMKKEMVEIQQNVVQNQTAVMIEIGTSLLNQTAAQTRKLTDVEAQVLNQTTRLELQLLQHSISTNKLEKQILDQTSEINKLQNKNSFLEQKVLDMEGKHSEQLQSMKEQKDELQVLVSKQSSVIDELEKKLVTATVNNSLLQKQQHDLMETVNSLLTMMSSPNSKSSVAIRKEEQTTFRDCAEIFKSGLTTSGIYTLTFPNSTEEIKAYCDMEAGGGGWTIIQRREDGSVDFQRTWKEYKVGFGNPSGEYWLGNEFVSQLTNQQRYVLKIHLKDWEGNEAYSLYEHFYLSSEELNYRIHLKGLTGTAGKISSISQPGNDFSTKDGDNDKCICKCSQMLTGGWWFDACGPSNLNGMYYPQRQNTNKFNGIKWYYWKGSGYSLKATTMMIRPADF
Mouse/Human chimeric Ang-2 with human StuI-TfiI fragment (residues 310-400) (mouse with human residues 310-400), sequence (O35608 other isoform, or with tags, fused parts or gaps mutant limits assumed): as the sequence (O35608 other isoform, or with tags, fused parts or gaps mutant) above, with K386T, G393A, N403S, G410S, T424S, M440Q, R445K counted along it
mouse Angiopoietin-2 (mouse), sequence (O35608 19-496 S348N/G411A limits assumed): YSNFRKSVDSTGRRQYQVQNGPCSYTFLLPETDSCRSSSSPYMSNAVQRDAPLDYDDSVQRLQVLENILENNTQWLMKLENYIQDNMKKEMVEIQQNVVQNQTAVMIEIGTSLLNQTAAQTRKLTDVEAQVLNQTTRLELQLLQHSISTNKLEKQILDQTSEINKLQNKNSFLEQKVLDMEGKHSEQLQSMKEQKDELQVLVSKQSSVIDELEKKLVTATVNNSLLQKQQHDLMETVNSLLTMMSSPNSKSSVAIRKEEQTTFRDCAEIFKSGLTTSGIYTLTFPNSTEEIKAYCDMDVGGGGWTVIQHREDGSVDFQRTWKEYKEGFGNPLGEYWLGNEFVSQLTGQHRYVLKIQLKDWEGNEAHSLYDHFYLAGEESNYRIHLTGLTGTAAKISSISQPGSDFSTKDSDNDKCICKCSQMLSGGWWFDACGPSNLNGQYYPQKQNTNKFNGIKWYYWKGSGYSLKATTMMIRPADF
human Ang-2443 (human), sequence (O15123 other isoform, or with tags, fused parts or gaps): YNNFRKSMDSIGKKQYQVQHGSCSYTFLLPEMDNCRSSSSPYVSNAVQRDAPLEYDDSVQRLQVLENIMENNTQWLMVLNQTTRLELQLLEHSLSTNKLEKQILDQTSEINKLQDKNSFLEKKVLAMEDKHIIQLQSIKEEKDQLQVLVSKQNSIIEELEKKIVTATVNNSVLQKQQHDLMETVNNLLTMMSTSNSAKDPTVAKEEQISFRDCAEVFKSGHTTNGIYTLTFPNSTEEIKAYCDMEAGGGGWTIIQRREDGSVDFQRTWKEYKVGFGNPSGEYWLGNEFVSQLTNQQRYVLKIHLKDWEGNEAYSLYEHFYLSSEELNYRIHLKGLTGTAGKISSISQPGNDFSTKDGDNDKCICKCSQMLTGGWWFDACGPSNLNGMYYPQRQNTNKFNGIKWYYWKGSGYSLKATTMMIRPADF

B1: mAb 3.28.1 (antibody, part only; not given: light chain, V domains shown, part only)
VH: EVQLVESGGGLVQPGGSLRLSCAASGFTFSSSWMSWVRQAPGKGLEWVANIKQDGSDKYYVDSVKGRFTISRDNAKNSLYLQMNSLRAEDTAVYYCVRDKGSGWFDYWGQGTLVTVSSA
Turning to B1, the percent binding compared to human Ang-2 in assay [1] came out at 31%; in [2] it was 100%; in [3] it was 100%; in assay [4], 100%; in assay [5] it was 100%; in assay [6] it was 100%. In assay [7], this molecule yielded a percent binding compared to human Ang-2 of 100%. Further, in [8], the koff worked out at 1e-05 s⁻¹. Further, the OD650 in inibition assay in assay [9] was 0.0588 OD650. Besides, the Kd in assay [10] is 0.037 nM. Also, the kon in assay [10] stood at 270000 M⁻¹ s⁻¹.

B2: mAb 6.3.1 (antibody, V domains shown)
VH: QVQLVQSGAEVKKPGASVKVSCKASGYTFTGYFMHWVPQAPGQGLEWMGWINPNSGGTNYAQNFQGRVTMTRDTSISTAYMELSRLRSDDTPVYYCARDPWQNWNSYFDYWGQGTLVTVSS
VL: DIQMTQSPSSLSASVGDRVTITCRASQSIRSYLNWYQQKPGKAPKVLIYAASSLQSGVPSRFSGSGSGTDFTLTISSLQPEDFATYYCQQSYSTLCSFGQGTKLEIKR
For B2, the percent binding compared to human Ang-2 in [2], in assay [4], in [5] and in [6] was 100% in each case.

B3: mAb 5.39.1 (antibody, V domains shown)
VH: QVQLVQSGAEVTKPGASVKVSCKASGYTFTAYHMYWVRQAPGQGLEWMGWINPNSGGTNYAQKFQGRVTMTRDTSISTAYMELSRLRSDDSPVYYCARDQGIAAAGPFDYWGQGTLVTVSS
VL: EIVMTQSPATLSVSPGDRATLSCRASQSVSSNFAWYQQKPGQAPRLLIYGSSTRATGIPARFSGSGSGTEFTLTISSLQSEDFAVYYCQQYHYWWTFGQGTKVEFKR
Turning to B3, the percent binding compared to human Ang-2 in [2], in assay [4], in assay [5] and in assay [6] was 100% each time.

B4: mAb 3.3.2 (antibody, V domains shown)
VH: EVQLVESGGGLVQPGGSLRLSCAVSGFTFSSYWMSWVRQAPGKGLEWVANIKQDGSEKYYVDSVKGRFTISRDNAKNSLYLQMNSLRAEDTAVYYCARDQGIAVAGPFDYWGQGTLVTVSS
VL: EIVMTQSPATLSVSPGERATLSCRASQTVSSDLAWYQQKPGQAPRLLIYGASIRATGIPARFSGSGSGTEFTLTISSLQSEDFAVYSCQQYYNWWTFGQGTKVEIKR
Consider B4, for which the percent binding compared to human Ang-2 in assay [2], in assay [4], in assay [5] and in [6] was 100% throughout.

B5: mAb 5.88.3 (antibody, V domains shown)
VH: EVQMVESGGGLVQPGGSLRLSCAASGFTLRSYWMSWVRQAPGKGLEWVANIKEDGSEKYHVDSVKGRFTISRDNAENSLFLQMSSLRAEDTAVYYCARDMEASAGLFDYWGQGTLVTVSS
VL: EIVMTQSPATLSVSPGERAILSCRASQSISSNLAWYQQKPGQAPRLLIYGASTRATGIPARFSGSGSGTEFTLTISSLQSEDFAVYYCQQYNYWWTFGQGTKVEIKR
In the case of B5, the percent binding compared to human Ang-2 in [2], in assay [4], in assay [5] and in assay [6] was 100% throughout.

B6: mAb 5.62.1 (antibody, V domains shown)
VH: EVQLVESGGGLVQPGGSLRLSCAASGFTFSSYWMSWVRQAPGKGLEWVANIKQDGSEKYYVDSVKGRFTISRDNAKNSLYLQMNSLRAEDTAVYYCARDPGIAVAGPFDYWGQGTLVTVSS
VL: EIVMTQSPATLSVSPGERATLSCRASQSVSSNLAWYQQKPGQAPRLLIYGAFTRATGIPARFSGSGSGTEFTLTISSLQSEDFAVYYCQQYNHWWTFGQGTKVGIKR
Turning to B6, the percent binding compared to human Ang-2 in assay [2], in assay [4], in [5] and in assay [6] was 100% in each case.

B7: mAb 5.86.1 (antibody, V domains shown)
VH: QVQLVQSGAEVKKPGASVKVSCKASGYTFTGYHMYWVRQAPGQGLEWLGWINPNSGGTNYAQKFQGRVTMTRDTSISTAYMELSRLRSDDTAVYYCVRDQGIAAAGPFDYWCQGTLVTVSS
VL: DIRMTQSPSSLSASVGDRVTITCRASQRISTYLNWYQQKPGKAPKFLIYAASSLQSGVPSRFSGSGSGTDFTLTISSLQPEDFATYYCQQSYTTPFTFGPGTKVDIKR
For B7, the percent binding compared to human Ang-2 in [2], in assay [4], in [5] and in [6] was 100% in each case.

B8: mAb 5.28.1 (antibody, V domains shown)
VH: EVQLVESGGIVVQPGGSLRLSCAASGFTFDDYTMHWVRQTPGKGLEWVSLISWDGGSTYYADSVKGRFTISRDNSKNSLYLQMNSLRTEDTALYYCAKDIDIAVAGTGFDHWGQGTLVTVSS
VL: EIVMTQSPATLSVSPGERATLSCRASQSVTSNLAWYQQKPGQAPRLLIYGALIRATGIPARFSGSGSGTEFTLTISSLQSEDFAVYYCQQYNNWPFTFGPGTKVDIKR
As for B8, the percent binding compared to human Ang-2 in assay [2], in [4], in [5] and in [6] was 100% throughout.

B9: mAb 5.2.1 (antibody, part only; not given: light chain, V domains shown, part only)
VH: QVQLVESGGGVVQPGRSLRLSCAASGFTFSSYGMHWVRQAPGKGLEWVAVIWFDGFNKYYADSVKGRFTISRDNSKNTLYLQMNSLRAEDTAVYHCARDRGYSGYDHYYGMDVWGQGTTVTVSSA
For the molecule B9, the percent binding compared to human Ang-2 in [1], in [2], in [3], in assay [4], in assay [5] and in assay [6] was 100% in each case. The percent binding compared to human Ang-2 in [7] stood at 100%. Further, the percent of their immunoreactivity on human Ang-2 in [11] is 100%. For the same molecule, in assay [8], the koff was 1e-05 s⁻¹. The OD650 in inibition assay in assay [9] was determined as 0.069 OD650. Further, the Kd in assay [10] worked out at 0.062 nM. The kon in [10] worked out at 160000 M⁻¹ s⁻¹. Besides, the antibody concentration at saturation in assay [12] was 10 µg/mL.
